Reference: article PMC3199733, “Expression, purification, electron microscopy, N-glycosylation mutagenesis and molecular modeling of human P2X4 and Dictyostelium discoideum P2XA” (Biochimica et Biophysica Acta, 2011)
Where “and” joins values, the source holds several entries; their conditions need not be identical. Equal entries are not always repeated.

Molecular target: the molecule itself
Assay: native gel or EMSA; non-denaturing PFO-PAGE (6% gels, 4% PFO) with anti-His Western blot of Sf9 membranes, untreated (Total) or solubilised in 1% (w/v) detergent (DDM, beta-OG, TX-100, FC-12, C12E8, LDAO) in TBS, 1 h on ice

Row | Protein | stoichiometry N
1 | human P2X4-(His)10 (receptor, UniProt Q99571 1-388, looked up, human P2X4 receptor, full-length wild type; N-glycosylated (insect-cell type); also called hP2X4; source: Sf9 cells, baculovirus-infected; in membranes, untreated or detergent-solubilised) MAGCCAALAAFLFEYDTPRIVLIRSRKVGLMNRAVQLLILAYVIGWVFVWEKGYQETDSVVSSVTTKVKGVAVTNTSKLGFRIWDVADYVIPAQEENSLFVMTNVILTMNQTQGLCPEIPDATTVCKSDASCTAGSAGTHSNGVSTGRCVAFNGSVKTCEVAAWCPVEDDTHVPQPAFLKAAENFTLLVKNNIWYPKFNFSKRNILPNITTTYLKSCIYDAKTDPFCPIFRLGKIVENAGHSFQDMAVEGGIMGIQVNWDCNLDRAASLCLPRYSFRRLDTRDVEHNVSPGYNFRFAKYYRDLAGNEQRTLIKAYGIRFDIIVFGKAGKFDIIPTMINIGSGLALLGMATVLCDIIVLYCMKKRLYYREKKYKYVEDYEQGLASELDQ | 2 and 3
2 | Dictyostelium discoideum P2XA-(His)6 (receptor, UniProt Q86JM7 1-378, looked up, P2XA receptor of Dictyostelium discoideum, full-length wild type, from a human codon-optimised cDNA; N-glycosylated (insect-cell type); also called DdP2XA; DdP2XA-(His)6; source: Sf9 cells, baculovirus-infected; in detergent-solubilised membranes, and purified (Ni-sepharose, preparative PFO-PAGE)) MGFSFDWDDIFQYSTVKIVRIRDRRLGILHLSFLVGIVAYIVVYSAIIKKGYLFTEVPIGSVRTSLKGPNTFASNLTYCSNQQHNGSTYPFTPLECNYWDEQLALFPVGQDSTFTCTTRVRLSKQEANCNFTDPTCKFVDEPGSAKNIYIADIESFTILIDHTMYASSSGSQFNAVDLHGYILNQDGDEVQIDANGTSIGVSGKPDIMTIGQLLSFGGVSLDQASPVDSNVSIRYDGVVLFVFITYSNTYTYSTSDFKYVYSVQQIANTIYDVPETIILESIHSRLLYKRHGIRVIFIQTGTIGSFHFQTLLLTLVSGLGLLAVATTVVDQLAIRLLPQRKSYSSLKFQVTESMSNPMKKRITTDEGEDVLYTRIEGL | 3
